Laboratory results as given in patent EP4741426A1 (Leto Laboratories Co., Ltd, dated 2026).

Target: T1, Fc-fused CD215 fragment
T1 construct: also called CD215 fragment in L-unit (fused with hIgG4Fc); CD215 fragment fused with Fc
Assay: sandwich ELISA of the intact complex in mouse serum: one antibody captures the S-unit, the other detects the Fc portion

T1 sequence (chain, as listed by the source limits assumed): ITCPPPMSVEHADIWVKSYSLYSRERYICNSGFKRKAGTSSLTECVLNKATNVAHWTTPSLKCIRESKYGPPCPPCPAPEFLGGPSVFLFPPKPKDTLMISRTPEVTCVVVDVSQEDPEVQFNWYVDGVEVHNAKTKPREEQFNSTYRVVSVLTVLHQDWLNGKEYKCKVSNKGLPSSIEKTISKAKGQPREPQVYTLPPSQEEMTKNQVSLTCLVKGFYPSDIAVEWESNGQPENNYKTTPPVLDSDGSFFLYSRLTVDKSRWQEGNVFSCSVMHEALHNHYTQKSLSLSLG

B1: S-unit molecule (PM619) (ligand)
chain: APTSSSTKKTQLQLEHLLLDLQMILNGIQSMHIDATLYTESDVHPSCKVTAMKCFLLELQVISLESGDASIHDTVENLIILANNSLSSNGNVTESGCKECEELEEKNIVEFLNRFITFAQSIISTLT
notes: also called IL-2/15 chimera; modified IL-2 molecule
binding result: binds
